Data set [1] concerns the target T1, Hfq (Escherichia coli, UniProt P0A6X3 1-102). The data set can be described thus: EMSA. In general terms: A gel shift assay detects complexes by their altered migration in electrophoresis.
Data set [2] concerns the target T1, Hfq. The data set can be described thus: EMSA. The source holds these as a separate data set.

As usually defined, the Kd is the concentration at which binding is half-saturated. Higher therefore signals a looser complex.

Changes are numbered by the printed parent chain.

T1 sequence (P0A6X3 whole entry): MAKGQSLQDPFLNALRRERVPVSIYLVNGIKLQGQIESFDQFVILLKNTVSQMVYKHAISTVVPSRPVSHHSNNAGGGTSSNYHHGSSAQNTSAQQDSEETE

B1: mutS leader ARN3* (structured_RNA)
RNA: GGUGCGCCUUAUGUGAUUACAACGAAAAUAAAAACCAUCACACCCCAUUUAAUAUCAGGGAACCGGACAUAACCCCAUGAGUGCCAUCGAGAAUUUCGACGCCCAU
As for B1, the Kd in the data set with Hfq [1] is roughly 0.019 µM.

B2: mutS leader ARN1* (structured_RNA)
RNA: B1 RNA with A27C, A28G, A31U, A33U, C85A, C88A, G91A
Consider B2, for which, in the data set with Hfq [2], the binding signal is ~3 fold lower affinity than WT.

For the origin of these results see PMC5580658.
